Experimental data reported in publication PMC2807882, “Conservation of DNA-binding specificity and oligomerisation properties within the p53 family”.

How the values were obtained:
Experiment in all cases: anisotropy competition; 25 mM NaPi, 225 mM NaCl, 10% v/v glycerol, 5 mM DTT, 0.2 mg/mL BSA, 22°C; 20 nM labelled DNA; pH not stated for the binding assay
Conditions in all cases: protein: recombinant; tags: N-terminal 6xHis-lipoyl-TEV tag, cleaved; chain copies: 4
[1] = molecular target: T1, Drp53 (Danio rerio, UniProt P79734 1-373)
T1 sequence: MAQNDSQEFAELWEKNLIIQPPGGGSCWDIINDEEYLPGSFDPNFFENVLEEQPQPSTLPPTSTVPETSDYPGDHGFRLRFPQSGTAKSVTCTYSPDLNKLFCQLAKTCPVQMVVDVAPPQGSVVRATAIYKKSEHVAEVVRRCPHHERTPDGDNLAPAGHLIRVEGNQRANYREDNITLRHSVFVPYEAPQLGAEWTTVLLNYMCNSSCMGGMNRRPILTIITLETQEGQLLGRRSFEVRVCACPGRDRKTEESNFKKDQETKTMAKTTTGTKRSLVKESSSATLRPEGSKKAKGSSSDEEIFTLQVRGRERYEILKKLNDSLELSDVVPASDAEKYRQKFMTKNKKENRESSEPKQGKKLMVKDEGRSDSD

[2] = molecular target: T2, ΔNp63β (Homo sapiens, UniProt Q9H3D4-4 1-461)
T2 sequence: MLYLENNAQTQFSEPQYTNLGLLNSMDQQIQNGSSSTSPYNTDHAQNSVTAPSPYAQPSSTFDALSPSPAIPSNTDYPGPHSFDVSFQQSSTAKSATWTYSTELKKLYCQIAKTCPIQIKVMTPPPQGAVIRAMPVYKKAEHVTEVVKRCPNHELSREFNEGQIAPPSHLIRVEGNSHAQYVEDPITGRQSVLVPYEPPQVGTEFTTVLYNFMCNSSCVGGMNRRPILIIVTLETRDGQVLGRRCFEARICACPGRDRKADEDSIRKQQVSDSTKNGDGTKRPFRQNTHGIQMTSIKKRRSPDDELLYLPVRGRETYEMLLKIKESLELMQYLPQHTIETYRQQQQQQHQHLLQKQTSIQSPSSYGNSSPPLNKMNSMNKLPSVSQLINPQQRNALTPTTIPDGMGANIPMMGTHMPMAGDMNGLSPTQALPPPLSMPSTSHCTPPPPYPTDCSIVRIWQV

[3] = molecular target: T3, ΔNp63γ (Homo sapiens, UniProt Q9H3D4-6 1-393)
T3 sequence: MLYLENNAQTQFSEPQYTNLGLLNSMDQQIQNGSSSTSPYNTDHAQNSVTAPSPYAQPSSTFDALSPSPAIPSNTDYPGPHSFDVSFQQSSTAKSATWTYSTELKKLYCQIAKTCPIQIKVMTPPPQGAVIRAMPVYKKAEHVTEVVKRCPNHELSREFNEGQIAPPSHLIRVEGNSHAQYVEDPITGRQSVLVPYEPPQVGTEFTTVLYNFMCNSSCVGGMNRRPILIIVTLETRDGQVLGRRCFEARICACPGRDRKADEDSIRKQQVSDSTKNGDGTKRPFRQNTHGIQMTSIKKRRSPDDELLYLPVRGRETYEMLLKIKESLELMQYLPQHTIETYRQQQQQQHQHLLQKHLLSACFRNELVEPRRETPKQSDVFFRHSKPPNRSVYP

[4] = molecular target: Hsp53 (Homo sapiens, UniProt P04637 1-393)
Chain of Hsp53 (P04637 whole entry): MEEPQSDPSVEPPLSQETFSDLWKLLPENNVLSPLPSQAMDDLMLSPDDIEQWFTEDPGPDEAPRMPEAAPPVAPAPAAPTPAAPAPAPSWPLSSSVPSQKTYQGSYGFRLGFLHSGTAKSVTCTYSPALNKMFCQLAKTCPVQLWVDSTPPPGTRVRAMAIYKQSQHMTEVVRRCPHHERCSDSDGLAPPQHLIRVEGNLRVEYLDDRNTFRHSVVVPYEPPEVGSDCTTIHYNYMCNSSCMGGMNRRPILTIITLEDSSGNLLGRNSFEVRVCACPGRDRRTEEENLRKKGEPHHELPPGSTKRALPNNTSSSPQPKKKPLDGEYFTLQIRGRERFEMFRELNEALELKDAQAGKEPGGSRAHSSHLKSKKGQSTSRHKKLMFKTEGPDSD

[5] = molecular target: T4, ΔNp63α (Homo sapiens, UniProt Q9H3D4-2 1-586)
T4 sequence: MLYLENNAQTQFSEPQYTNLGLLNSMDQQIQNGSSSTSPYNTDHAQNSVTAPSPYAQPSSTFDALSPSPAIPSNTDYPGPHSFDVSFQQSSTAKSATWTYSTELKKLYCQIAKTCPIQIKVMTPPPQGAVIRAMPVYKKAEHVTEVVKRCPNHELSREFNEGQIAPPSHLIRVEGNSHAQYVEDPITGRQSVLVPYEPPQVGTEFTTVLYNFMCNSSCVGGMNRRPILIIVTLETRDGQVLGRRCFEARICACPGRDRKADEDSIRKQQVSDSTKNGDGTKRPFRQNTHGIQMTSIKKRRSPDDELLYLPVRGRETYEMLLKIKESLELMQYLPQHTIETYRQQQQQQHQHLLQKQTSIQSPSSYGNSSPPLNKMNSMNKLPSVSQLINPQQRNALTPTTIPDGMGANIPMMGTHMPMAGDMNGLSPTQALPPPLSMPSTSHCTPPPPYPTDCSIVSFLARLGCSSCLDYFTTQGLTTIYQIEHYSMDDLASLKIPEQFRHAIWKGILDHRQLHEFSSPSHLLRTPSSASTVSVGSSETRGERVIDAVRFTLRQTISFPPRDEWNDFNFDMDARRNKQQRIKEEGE

[6] = molecular target: T5, ΔNp73β (Homo sapiens, UniProt O15350-9 1-450)
T5 sequence: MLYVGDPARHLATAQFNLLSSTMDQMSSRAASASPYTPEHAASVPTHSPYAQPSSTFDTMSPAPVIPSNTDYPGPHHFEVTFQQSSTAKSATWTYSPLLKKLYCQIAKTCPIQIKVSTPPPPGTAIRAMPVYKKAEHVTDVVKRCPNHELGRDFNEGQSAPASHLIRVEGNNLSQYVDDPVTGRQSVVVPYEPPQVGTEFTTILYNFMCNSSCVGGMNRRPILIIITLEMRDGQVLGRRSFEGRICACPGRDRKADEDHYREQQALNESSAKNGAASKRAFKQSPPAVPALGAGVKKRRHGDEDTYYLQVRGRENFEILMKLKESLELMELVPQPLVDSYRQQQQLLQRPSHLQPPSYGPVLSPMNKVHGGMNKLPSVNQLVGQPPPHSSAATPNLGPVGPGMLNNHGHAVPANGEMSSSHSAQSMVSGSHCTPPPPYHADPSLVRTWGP

B1: Ref competitor (dsDNA)
DNA 1: CGCGGACATGTCCGGACATGTCCCGC
DNA 2: GCGGGACATGTCCGGACATGTCCGCG
With B1 the Kd [1] was -7.42 log10(M), the Kd [2] was -7.45 log10(M) and the Kd [3] was -7.48 log10(M). For the same binder, the Kd [4] was -7.12 log10(M), the Kd [5] was -7.21 log10(M) and the Kd [6] was -7.62 log10(M).
